Measured values published in PMC8136665.
“And” between values parts separate entries of the source, which are not always exact repeats. Equal entries are not always repeated.

Columns and labels:
[1] = target: SARS-CoV-2 spike (S) glycoprotein ectodomain, prefusion-stabilised trimer (SARS-CoV-2) (UniProt P0DTC2); assay: SPR
[2] = target: SARS-CoV-2 spike (S) glycoprotein ectodomain, prefusion-stabilised trimer (SARS-CoV-2) (UniProt P0DTC2); assay: negative-stain electron microscopy

Substance	Kd [1]	stoichiometry N [2]
L-SIGN extracellular domain (liver/lymph node-specific intracellular adhesion molecules-3 grabbing non-integrin) (from UniProt Q9H2X3 78-399) (domain or fragment)	1.8 µM and 1.66 µM	
DC-SIGN extracellular domain (Dendritic Cell-Specific Intercellular adhesion molecule-3-Grabbing Non-integrin) (from UniProt Q9NNX6 66-404) (domain or fragment)	11.9 µM and 4.33 µM	1 and > 2
MGL (Macrophage galactose lectin) extracellular domain (domain or fragment)	7 µM	
